# Measurements from FireProtDB (doi:10.1016/s0022-2836(03)00249-3).
# “And” between values parts separate entries of the source, which are not always exact repeats. Identical values can stand only once.
# Settings: Saccharomyces cerevisiae (strain ATCC 204508 / S288c), 25 °C, GdnHCl, reversible: yes, whole UniProt chain shown
# [1] = pH 7, Fluorescence, Tris-HCl 50 mM, NaCl 0.2 M, transition: 2
# [2] = pH 7.5, Fluorescence, Tris-HCl 50 mM, NaCl 0.2 M, transition: 2
# [3] = pH 7.5, Fluorescence, Tris-phosphate 50 mM, NaCl 0.2 M, transition: 2
# [4] = pH 8, CD, Na2HPO4-KH2PO4 50 mM, NaCl 0.15 M, transition: 3
# [5] = pH 8, Fluorescence, Na2HPO4-KH2PO4 50 mM, NaCl 0.15 M, transition: 2
# [6] = pH 8, Fluorescence, Tris-HCl 50 mM, NaCl 0.2 M, transition: 2
# [7] = pH 8, Fluorescence, Tris-HCl 50 mM, NaCl 0.2 M, transition: 3
# [8] = pH 8.4, Fluorescence, Tris-HCl 50 mM, NaCl 0.2 M, transition: 2
# [9] = pH 8.5, Fluorescence, Na2HPO4-KH2PO4 50 mM, NaCl 0.15 M, transition: 2
protein,measurement,setting,value
"Transcriptional regulator URE2 wild type, P23202 (protein) MMNNNGNQVSNLSNALRQVNIGNRNSNTTTDQSNINFEFSTGVNNNNNNNSSSNNNNVQNNNSGRNGSQNNDNENNIKNTLEQHRQQQQAFSDMSHVEYSRITKFFQEQPLEGYTLFSHRSAPNGFKVAIVLSELGFHYNTIFLDFNLGEHRAPEFVSVNPNARVPALIDHGMDNLSIWESGAILLHLVNKYYKETGNPLLWSDDLADQSQINAWLFFQTSGHAPMIGQALHFRYFHSQKIASAVERYTDEVRRVYGVVEMALAERREALVMELDTENAAAYSAGTTPMSQSRFFDYPVWLVGDKLTIADLAFVPWNNVVDRIGINIKIEFPEVYKWTKHMMRRPAVIKALRGE",denaturant m value,[1],3.2 kcal/mol/M
same,denaturant midpoint (higher = more stable),[1],2.4 M
same,unfolding free energy,[1],17 kcal/mol
same,unfolding free energy,"pH 7, Fluorescence, Tris-HCl 50 mM, NaCl 0.2 M, transition: 3",7.9 kcal/mol
same,denaturant m value,[2],3.6 kcal/mol/M
same,denaturant midpoint (higher = more stable),[2],2.64 M
same,unfolding free energy,[2],20 kcal/mol
same,unfolding free energy,"pH 7.5, Fluorescence, Tris-HCl 50 mM, NaCl 0.2 M, transition: 3",8.8 kcal/mol and 8.5 kcal/mol and 8.9 kcal/mol
same,denaturant m value,[3],4.8 kcal/mol/M and 5.2 kcal/mol/M
same,denaturant midpoint (higher = more stable),[3],2.66 M and 2.53 M
same,unfolding free energy,[3],21 kcal/mol and 22 kcal/mol
same,unfolding free energy,"pH 7.5, Fluorescence, Tris-phosphate 50 mM, NaCl 0.2 M, transition: 3",9 kcal/mol
same,denaturant midpoint (higher = more stable),[4],2.33 M and 3.54 M
same,unfolding free energy,[4],7 kcal/mol
same,denaturant m value,[5],4 kcal/mol/M
same,denaturant midpoint (higher = more stable),[5],2.48 M
same,unfolding free energy,[5],19 kcal/mol
same,unfolding free energy,"pH 8, Fluorescence, Na2HPO4-KH2PO4 50 mM, NaCl 0.15 M, transition: 3",6.9 kcal/mol and 6.8 kcal/mol
same,denaturant m value,[6],3 kcal/mol/M and 4.1 kcal/mol/M and 6 kcal/mol/M
same,denaturant midpoint (higher = more stable),[6],3 M and 2.84 M and 2.66 M
same,unfolding free energy,[6],16 kcal/mol and 19 kcal/mol
same,denaturant m value,[7],8 kcal/mol/M and 3 kcal/mol/M
same,denaturant midpoint (higher = more stable),[7],3.23 M and 2.67 M
same,unfolding free energy,[7],8 kcal/mol
same,denaturant m value,[8],5 kcal/mol/M and 5.5 kcal/mol/M and 6.8 kcal/mol/M
same,denaturant midpoint (higher = more stable),[8],3.06 M and 2.95 M and 2.93 M
same,unfolding free energy,[8],23 kcal/mol and 24 kcal/mol
same,denaturant m value,[9],5 kcal/mol/M
same,denaturant midpoint (higher = more stable),[9],2.57 M
same,unfolding free energy,[9],22 kcal/mol
same,unfolding free energy,"pH 8.5, Fluorescence, Na2HPO4-KH2PO4 50 mM, NaCl 0.15 M, transition: 3",7.6 kcal/mol and 7.4 kcal/mol and 7.5 kcal/mol
